B1: SLC2A12 (parent)
chain: LTLVFFVQITGQPNILFYASTVLK
B2: CAMK2B (parent)
chain: YQQIKAGAYDFPSPEWDTVTPEAK

Variants of: B1
Experiment: protein stability index of a GFP-peptide fusion (GPS, HEK-293T) (PSI 1-6); higher = more stable
Conditions: c terminus: a fixed tail appended
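Further: lentivirally expressed fusions sorted by FACS into six bins by GFP to DsRed ratio, PSI derived from sequencing read proportions per bin multiplied by bin number.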

Protein stability index: each site, then its substitutions
L3: E 4.85 | M 3.15
L23: Q 3.05 | R 3.18
N14: Q 3.83 | T 3.06 | I 4.38 | P 2.34 | E 1.76
L16: R 3.61 | P 4.12 | T 3.51
T2: A 2.61 | W 2.96 | L 3.88 | E 1.69
I9: H 4.79 | Q 1.99 | G 2.45
F6: W 2.85 | T 2.35 | H 3.02
S20: Q 2.48
Q12: M 3.94 | C 2.83 | R 2.64
V7: M 4.19
Y18: S 3.38
P13: Q 2.05
V4: Y 2.54 | K 2.64 | I 2.99 | E 1.44 | D 3.68
V22: L 2.28 | D 3.37 | R 3.38
L1: K 2.96 | N 1.69 | P 2.54 | C 2.29 | R 1.8 | W 2.65 | Y 2.85 | M 3.03
G11: T 2.29 | M 3.38 | C 2.58
F5: W 3.59 | R 3.67 | Q 2.13
K24: L 1.12 | N 4.33
Q8: K 3.48
A19: M 2.4 | L 3.37
I15: A 2.99
T21: D 3.9 | E 2.46 | C 3.33
T10: Q 1.31
F17: Y 2.63 | A 1.86

Variants of: B2
Experiment: as above
Conditions: c terminus: a fixed tail appended

Protein stability index: each site, then its substitutions
K5: S 3.64 | I 3.35 | H 3.46 | T 4 | N 3.92 | C 3.58 | E 4.84 | Q 3.77 | D 4.39 | M 4.04 | A 4.07 | V 3.77 | P 3.71 | R 3.34 | G 3.88 | F 3.12 | Y 3.11 | W 1.95 | L 3.6
P12: L 2.9 | W 3.5 | D 4.01 | H 3.21 | Q 4 | K 3.3 | F 2.25 | I 3.21 | R 2.34 | E 4.09 | C 2.76 | G 3.71 | M 3.08 | A 2.94 | Y 3.71 | T 3.36 | V 2.81 | N 3.94 | S 3.29
D10: S 2.39 | H 2.54 | V 2.41 | T 2.61 | N 2.52 | E 3.55 | C 2.25 | K 2.25 | I 1.99 | G 2.23 | A 2.72 | P 2.7 | W 2.83 | M 2.7 | Y 1.79 | R 2.05 | L 2.4 | F 1.98 | Q 2.67
E15: H 2.91 | A 2.93 | D 3.86 | F 2.14 | C 2.42 | G 2.72
S13: K 3.4 | M 2.75 | V 3.18 | T 3.69 | W 2.8 | I 3.37 | L 3.29 | N 3.69 | R 3.29 | C 2.74 | Y 3.6 | F 2.79 | A 3.24 | Q 2.9 | D 4.08 | H 3.25 | G 4.11 | E 4.12
Y9: K 3.99 | I 3.9 | Q 4.48 | L 4.04 | E 4.71 | S 4.3 | W 2.48 | V 4.13 | F 3.5 | T 4.23 | P 4.17 | M 4.1 | R 3.64 | C 3.79 | H 4.14 | D 4.73 | N 4.26 | G 4.6 | A 4.37
I4: Y 3.21 | C 3.09 | N 3.41 | T 3.58 | M 3.66 | W 2.05 | L 3.81 | Q 3.78 | G 3.34 | H 3.56 | D 4.32 | K 3.42 | E 4.26 | V 3.93 | P 3.58 | F 3.19 | A 3.46 | S 3.02 | R 3.06
F11: Y 3.95 | I 3.8 | E 4.72 | D 4.63 | M 4.04 | N 4.37 | Q 4.24 | G 4 | W 3.15 | P 4.67 | K 3.91 | S 4.36 | H 4.2 | R 3.73 | V 4.15 | C 4 | A 4.58 | T 4.43 | L 3.97
G7: P 3.86 | W 2.31 | L 3 | N 3.77 | I 3.25 | K 3.27 | Y 1.87 | S 3.78 | V 3.53 | D 3.99 | A 3.79 | F 1.86 | M 3.23 | T 3.83 | E 4.23 | C 2.77 | H 3.69 | Q 3.92 | R 2.96
P14: T 3.82 | L 3.17 | Q 3.87 | F 2.67 | V 3.39 | G 4.03 | I 3.4 | A 3.96 | C 3.45 | Y 2.89 | W 2.57 | M 3.55 | R 3.37 | D 4.42 | H 3.65 | E 4.47 | S 3.71 | N 3.88 | K 3.85
Q2: F 3.46 | E 4.64 | W 3.06 | M 3.95 | H 2.88 | K 3.8 | V 1.8 | G 3.7 | P 3.67 | Y 3.6 | C 2.87 | A 3.12 | L 3.35 | T 3.67 | R 4.06 | I 2.28 | D 4.78 | S 4.34 | N 4.51
Q3: R 2.22 | F 2.55 | D 3.94 | T 3.28 | G 2.68 | A 2.11 | L 3.38 | E 4.59 | I 3.15 | W 2.09 | P 3.03 | S 2.8 | N 3.62 | H 3.28 | Y 2.6 | V 3.44 | K 2.75 | C 2.17 | M 2.88
Y1: H 4.58 | S 4.94 | N 5.21 | R 4.83 | M 5.04 | K 4.88 | G 5.11 | I 3.89 | F 3.33 | W 4.15 | D 5.38 | T 4.88 | Q 4.92 | L 4.75 | P 4.94 | C 4.45 | A 4.94 | E 5.13 | V 4.69
A8: D 3.91 | R 3.14 | F 2.84 | T 3.44 | G 3.61 | E 3.95 | V 3.16 | M 3.44 | K 3.66 | Q 3.68 | S 3.75 | W 2.26 | N 3.95 | P 3.02 | H 3.79 | Y 3.31 | I 3.05 | L 3.03 | C 3.44
A6: I 2.77 | R 2.38 | M 3.96 | E 4.41 | D 4.28 | G 3.13 | C 3.37 | Y 3.16 | S 3.59 | P 3.82 | N 3.44 | L 3.09 | K 3.22 | F 2.9 | V 3.12 | Q 3.92 | T 3.62 | W 2.28 | H 3.24
